The values below are quoted from earlier work in article PMC4657025.

Residue numbers refer to the chain shown, from its start. Names and notes keep the numbering of the source. Like-named read-outs stand apart in the source and are kept apart here.

Data set [1] deals with Asp85 (UniProt position 98, …).
Data set [2] addresses Asp96 (UniProt position 109, …). The data set can be described thus: not stated in the text (title of ref 19 indicates FTIR spectroscopy). As to conditions: dark state (unphotolysed BR).
Data set [3] deals with Asp85 (UniProt position 98, …). As to conditions: 150 mM NaCl.

B1: Bacteriorhodopsin (BR) (Halobacterium salinarum) (protein)
chain: QAQITGRPEWIWLALGTALMGLGTLYFLVKGMGVSDPDAKKFYAITTLVPAIAFTMYLSMLLGYGLTMVPFGGEQNPIYWARYADWLFTTPLLLLDLALLVDADQGTILALVGADGIMIGTGLVGALTKVYSYRFVWWAISTAAMLYILYVLFFGFTSKAESMRPEVASTFKVLRNVTVVLWSAYPVVWLIGSEGAGIVPLNIETLLFMVLDVSAKVGFGLILLRSRAIFGEAEAPEPSAGDGAAATSD
In general, pKa refers to the pH at which an ionisable group is half protonated. For B1, the values for the pKa in data set [1], in data set [1] (150 mM NaCl) and in data set [2] were 2.7, 2.5 and greater than 11, respectively.

B2: Bacteriorhodopsin R82Q mutant (Halobacterium salinarum; R82Q) (protein)
chain: B1 chain with R82Q
For the protein B2, the pKa in data set [3] is on record as 7.2.
